B1: RAB40B (parent)
chain: YSLTTSSTHKRSSLRKVKLVRPPQ
B2: APBB1IP (parent)
chain: PPEPLSQVSMWDQRWQDHQPLLPI

Variants of: B1
Experiment: protein stability index of a GFP-peptide fusion (GPS, HEK-293T) (PSI 1-6); higher = more stable
Details: c terminus: a fixed tail appended
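Further: lentivirally expressed fusions sorted by FACS into six bins by GFP to DsRed ratio, PSI derived from sequencing read proportions per bin multiplied by bin number.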

Protein stability index, by site and new letter:
Q24: S 2.76 | L 2.86 | H 3.12 | M 2.49 | T 3 | Y 3.09 | P 3.21 | R 2.62 | C 2.45 | K 2.75 | F 2.53 | D 3.42 | G 2.82 | E 3.06 | V 2.31 | N 2.96 | A 2.53 | W 2.68 | I 2.22

Variants of: B2
Experiment: as above
Details: c terminus: a fixed tail appended

Protein stability index, by site and new letter:
Q13: V 2.49 | S 3.29 | L 2.16 | D 3.51 | Y 2.51 | C 2.56 | G 2.63 | E 3.56 | P 2.77 | N 3.5 | R 2.6 | H 2.79 | T 2.78 | K 2.76 | I 2.72 | F 2.4 | A 2.54 | W 2.91 | M 3.46
D17: L 3.26 | P 3.23 | A 2.5 | K 2.78 | N 3.15 | E 2.97 | G 2.81 | R 2.91 | Q 2.57 | F 2.08 | M 3.24 | I 2.57 | C 2.6 | S 2.53 | H 2.44
V8: K 3.25 | W 2.21 | S 3.52 | G 3.38 | N 3.36 | A 3.02 | D 4.03 | I 3.25 | F 2.51 | L 2.77 | T 2.9 | P 3.12 | Y 2.57 | E 3.48 | H 3.21 | C 2.22 | M 3.22 | Q 2.9 | R 2.83
E3: H 2.74 | L 3.07 | F 2.4 | Y 2.27 | A 2.87 | R 3.18 | Q 2.77 | M 2.94 | S 3.01 | C 2.48 | I 2.48 | D 3.34 | K 3.84 | G 3.06 | N 3.56 | W 2.32 | V 3.46
W11: Q 4.25 | F 3.55 | S 4.04 | D 4.4 | Y 3.51 | M 3.57 | C 3.16 | G 4.18 | E 4.18 | R 3.4 | H 3.83 | N 4.06 | L 3.77 | T 3.73 | V 3.9 | I 3.1 | P 3.08 | A 4.11
D12: T 3.07 | I 2.48 | C 2.34 | N 2.82 | F 2.13 | V 2.23 | H 2.6 | M 2.33 | L 2.22 | W 1.85 | P 2.89 | E 2.64 | Y 2.31 | G 2.15 | K 3.37 | R 2.9 | A 2.64 | Q 2.11 | S 2.73
P2: M 2.38 | A 2.71 | G 2.58 | V 3.11 | K 2.83 | T 2.69 | H 2.65 | L 2.09 | C 2.44 | W 2.07 | N 3.09 | Q 2.52 | Y 2.46 | R 2.5 | I 2.42 | F 1.92 | D 2.95 | S 2.83 | E 3.02
P4: N 2.93 | S 2.61 | D 3.56 | V 2.61 | I 2.52 | A 3.05 | L 2.54 | K 2.55 | T 3.1 | E 3.34 | C 2.51 | W 2.3 | Q 3.34 | H 3.22 | M 2.79 | R 2.55 | F 2.44 | Y 2.87 | G 2.79
L5: Q 3.53 | F 3 | Y 2.71 | E 3.57 | V 2.99 | H 3.54 | I 2.72 | A 3.74 | M 2.88 | P 3.88 | K 2.71 | T 3.19 | C 3.75 | R 3.62 | N 3.31 | G 3.05 | S 3.26 | D 3.58 | W 2.2
W15: V 3.93 | Y 3.14 | D 4.34 | T 4.39 | R 3.41 | G 3.62 | K 4.05 | I 3.65 | N 3.7 | C 3.39 | M 4.02 | P 3.9 | L 3.28 | H 4.17 | E 4.03 | S 3.95 | F 3.62 | A 3.88 | Q 4.36
R14: I 3.14 | S 3.84 | W 3.29 | M 2.68 | F 2.86 | P 2.9 | K 3.06 | G 3.98 | C 2.79 | L 3.01 | V 2.92 | Y 3.12 | E 3.74 | N 3.86 | D 3.59 | A 2.75 | H 3.19 | Q 2.88 | T 3.39
Q16: S 2.61 | W 2.73 | H 2.53 | G 2.98 | C 2.6 | F 2.83 | V 2.7 | N 2.85 | K 3.06 | A 2.23 | I 2.72 | E 2.92 | L 2.46 | P 3.84 | T 2.46 | M 2.99 | Y 2.98 | R 2.68 | D 3.52
Q7: W 2.05 | S 2.81 | F 2.95 | V 3.33 | A 3.47 | D 2.97 | R 2.93 | C 3.13 | I 3.07 | Y 2.27 | H 3.61 | E 3.56 | L 2.85 | N 3.14 | M 2.74 | P 3.25 | G 3.25 | K 2.34 | T 3.3
S6: A 3.09 | G 2.9 | E 3.15 | K 2.81 | N 2.93 | M 2.82 | Q 3.28 | H 2.71 | C 2.46 | F 2.23 | L 2.85 | V 2.73 | I 2.71 | Y 2.09 | D 3.45 | T 2.76 | R 3.36 | P 3.65
S9: K 3.09 | V 3.35 | P 3.16 | H 3.22 | C 2.34 | E 3.56 | Y 2.57 | F 2.95 | Q 3.28 | I 2.86 | R 3.27 | T 2.99 | W 2.62 | D 3.55 | N 3.25 | G 3.35 | M 3.27 | A 3.4 | L 2.84
P1: I 2.39 | V 2.23 | Y 1.72 | K 2.73 | G 1.94 | Q 2.89 | R 2.54 | F 2.17 | N 2.87 | E 2.84 | S 2.87 | T 3.37 | W 2.48 | H 3.07 | C 2.34 | M 3.28 | D 3.31 | A 2.64 | L 2.02
M10: H 3.42 | Q 3.2 | A 3.52 | S 3.35 | C 3.52 | K 2.92 | N 3.54 | R 3.37 | F 2.94 | W 3.12 | D 4.12 | L 3.16 | G 3.3 | E 3.98 | V 3.36 | I 2.79 | Y 2.51 | P 3.87 | T 2.87

Reference: the supplement of paper PMC10567573
